Experiments:
Experiment in all cases: EMSA; 5 ug protein per lane; LightShift chemiluminescent EMSA kit, 6% polyacrylamide gel, 5 ug protein per lane; binding buffer, salt, pH and temperature not stated (protein eluted in 50 mM Tris-Cl pH 8.0, 30 mM glutathione)
Details in all cases: protein: recombinant; tags: N-terminal GST (pGEX-4T-2); label: biotin; blunt
GST-ARX(220-392) S266A = GST-ARX(220-392) S266A (UniProt O35085 220-392, S266A)
GST-ARX(220-392) S266E = GST-ARX(220-392) S266E (UniProt O35085 220-392, S266E)
GST-ARX(220-392) WT = GST-ARX(220-392) WT (UniProt O35085 220-392)

Measured: binding result

GST-ARX(220-392) S266A, sequence (O35085 220-392 S266A): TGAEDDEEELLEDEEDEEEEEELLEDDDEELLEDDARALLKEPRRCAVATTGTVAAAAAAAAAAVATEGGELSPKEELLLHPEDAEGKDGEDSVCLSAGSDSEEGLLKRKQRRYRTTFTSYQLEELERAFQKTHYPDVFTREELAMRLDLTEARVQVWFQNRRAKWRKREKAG
GST-ARX(220-392) WT, sequence (O35085 220-392): as the sequence (O35085 220-392 S266A) above, with A47S counted along it
GST-ARX(220-392) S266E, sequence (O35085 220-392 S266E): as the sequence (O35085 220-392 S266A) above, with A47E counted along it

B1: SIX1 probe (dsDNA)
DNA 1: TCTTAACATTAAGGTAATTAAATATGAGCTCAC
DNA 2: GTGAGCTCATATTTAATTACCTTAATGTTAAGA
binds: all assays above
